The text below walks through data of US5576294A, “Human Kunitz-type protease inhibitor variant” (Novo Nordisk A/S, priority 1992, dated 1996).

Assay [1] deals with T1, plasma kallikrein (Homo sapiens, UniProt P03952). To be noted: cf. WO 89/10374; cited from earlier work.
Target sequence in this assay (P03952 20-638, species assumed): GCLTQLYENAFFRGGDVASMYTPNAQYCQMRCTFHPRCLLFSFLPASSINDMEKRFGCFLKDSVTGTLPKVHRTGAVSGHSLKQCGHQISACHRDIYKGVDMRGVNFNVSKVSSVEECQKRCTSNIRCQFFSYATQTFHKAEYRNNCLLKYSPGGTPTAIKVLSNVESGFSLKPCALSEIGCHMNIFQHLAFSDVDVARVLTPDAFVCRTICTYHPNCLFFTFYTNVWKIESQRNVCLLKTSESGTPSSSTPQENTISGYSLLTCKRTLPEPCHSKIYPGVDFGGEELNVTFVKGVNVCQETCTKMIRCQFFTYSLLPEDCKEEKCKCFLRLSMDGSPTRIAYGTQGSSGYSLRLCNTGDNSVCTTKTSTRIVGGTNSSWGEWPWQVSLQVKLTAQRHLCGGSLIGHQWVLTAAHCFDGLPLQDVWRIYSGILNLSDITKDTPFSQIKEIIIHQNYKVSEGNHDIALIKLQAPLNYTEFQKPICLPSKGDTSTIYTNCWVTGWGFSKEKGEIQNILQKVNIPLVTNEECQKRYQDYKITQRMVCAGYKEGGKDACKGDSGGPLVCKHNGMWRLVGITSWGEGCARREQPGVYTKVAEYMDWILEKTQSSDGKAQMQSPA
For assay [2] the following is noted: high doses; cardiac surgery including cardiopulmonary bypass operations; cited from earlier work.
The target in assay [3] is Porcine trypsin (porcine) (UniProt P00761).
For assay [4] the target is unchanged. Description: proteinase inhibition: enzyme incubated 30 min with KFN 1593, residual activity on peptidyl nitroanilide substrate at 405 nm.
For assay [5], the target named is Factor Xa (as used in Example 3) (Homo sapiens (Human)) (UniProt P00742). The description is as above.
For a further assay, the system named is collagenase. The conditions noted are these: Wenzel and Tschesche 1981; cited from earlier work.
In the next assay the target is T2, granulocyte elastase (Homo sapiens, UniProt P08246).
T2 sequence (P08246 30-267): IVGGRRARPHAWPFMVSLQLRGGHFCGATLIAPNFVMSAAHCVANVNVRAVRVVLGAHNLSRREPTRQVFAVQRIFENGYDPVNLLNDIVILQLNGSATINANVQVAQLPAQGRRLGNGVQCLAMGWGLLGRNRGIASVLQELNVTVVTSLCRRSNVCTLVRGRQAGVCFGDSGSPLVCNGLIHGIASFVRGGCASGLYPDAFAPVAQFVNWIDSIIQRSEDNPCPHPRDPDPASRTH
The conditions noted are these: Wenzel and Tschesche 1981; cited from earlier work.

Assay [6] addresses T1, plasma kallikrein. Description: Inhibition of serine proteinases: plasma kallikrein. The conditions noted are these: Example 3; 30 min incubation, FIG. 3. The assay is classed as biochemical. As to the method:
(§1) KFN 1593 was purified from yeast culture medium as described in example 1. The concentration of KFN 1593 was determined using 1% E280 nm =8.3 and Mw =6500. Porcine trypsin was from Novo Nordisk (Bagsv.ae butted.rd, Denmark), bovine chymotrypsin (TLCK treated) and porcine pancreatic kallikrein was from Sigma Chemical Co (St. Louis, Mo., U.S.A.), human plasmin and human plasma kallikrein was from Kabi (Stockholm, Sweden).
(§2) Human neutrophil elastase and cathepsin G was purified from extracts of PMNs according to the method described by Baugh and Travis (Biochemistry 15 (1976) 836-843). Peptidyl nitroanilide substrates, S2251, S2586, S2266, S2302 were from Kabi (Stockholm, Sweden). M4765 and S7388 was from Sigma Chemical Co (St. Louis, Mo., U.S.A.) and FXa-1 was from NycoMed (Oslo, Norway).
(§3) Serine proteinases were incubated with various concentrations of KFN 1593 for 30 min. Substrate was then added and residual proteinase activity was measured at 405 nm.
(§4) The three TFPI (domain II) variants were purified from yeast culture medium. Their concentrations were determined from the absorbance at 214 nm using BPTI as a standard. The final concentration was determined by titration with trypsin. Porcine trypsin and human recombinant proteins, factor VIIa, activated protein C (ACP), and tPA were obtained from Novo Nordisk A/S (Bagsvaerd, Denmark), so was human thrombin. Bovine chymotrypsin and glandular kallikrein were obtained from Sigma Chemical Co. (St. Louis, Mo., U.S.A.). Truncated human recombinant tissue factor was obtained from Corvas (San Diego, Calif., U.S.A.). Human neutrophil cathepsin G was purified from extracts of PMNs according to the method described by Baugh and Travis (Biochemistry 15 (1976) 836-843). Human plasmin was from Kabi (Stockholm, Sweden), uPA was from Serono (Milan, Italy), human factor Xa was a gift from Dr. W. Kisiel (Albuquerque, N.M., U.S.A.), and human plasma kallikrein was a gift from Dr. I Schousboe (Copenhagen, Denmark).
(§5) Peptidyl nitroanilide substrates, S2251, S2302, S2266, S2586, S2288, S2444, S2366, and S2238 were from Kabi (Stockholm, Sweden). S7388 and M4765 were from Sigma Chemical Co. (St. Louis, Mo., U.S.A.) and FXa-1 was from Nycomed (Oslo, Norway).
(§6) Serine proteinases were incubated with various concentrations of Kunitz Domain variant for 30 min. Substrate (0.6 mM) was then added and residual proteinase activity was measured at 405 nm.
Target sequence in this assay (P03952 391-638 limits assumed): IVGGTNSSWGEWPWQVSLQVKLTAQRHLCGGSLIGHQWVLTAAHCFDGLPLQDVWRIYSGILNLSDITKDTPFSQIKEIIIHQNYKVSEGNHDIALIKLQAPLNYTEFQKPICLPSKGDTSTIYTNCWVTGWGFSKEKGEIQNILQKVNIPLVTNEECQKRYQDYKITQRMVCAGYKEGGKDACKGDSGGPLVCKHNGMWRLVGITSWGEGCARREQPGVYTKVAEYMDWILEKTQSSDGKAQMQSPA
Target sequence in this assay (P03952 20-390 limits assumed): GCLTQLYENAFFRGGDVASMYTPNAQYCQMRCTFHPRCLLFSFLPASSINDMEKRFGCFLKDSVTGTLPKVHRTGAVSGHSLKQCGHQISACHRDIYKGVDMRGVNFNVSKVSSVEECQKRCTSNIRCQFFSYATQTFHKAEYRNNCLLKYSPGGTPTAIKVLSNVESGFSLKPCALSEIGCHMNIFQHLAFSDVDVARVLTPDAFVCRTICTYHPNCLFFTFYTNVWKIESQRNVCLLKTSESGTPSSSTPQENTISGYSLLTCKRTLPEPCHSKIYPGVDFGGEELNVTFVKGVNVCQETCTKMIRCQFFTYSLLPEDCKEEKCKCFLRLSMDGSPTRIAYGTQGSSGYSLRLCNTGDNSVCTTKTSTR

A further assay has as its target T3, human factor Xa (Homo sapiens, UniProt P00742).
T3 construct: human factor Xa was a gift from Dr. W. Kisiel; gift from Dr. W. Kisiel (Albuquerque, N.M., U.S.A.)
Description: Inhibition of serine proteinases: Factor Xa. The assay is classed as biochemical. To be noted: Example 3; 30 min incubation; read-out: Ki, factor X. As to the method: as §1, §2, §3
The three TFPI (domain II) variants were purified from yeast culture medium. Their concentrations were determined from the absorbance at 214 nm using BPTI as a standard. The final concentration was determined by titration with trypsin. […]
as §6

The next assay addresses Human plasmin (Homo sapiens, UniProt P00747). Kind of assay: Inhibition of serine proteinases: plasmin. Set-up: human plasmin and human plasma kallikrein was from Kabi (Stockholm, Sweden); purchased Kabi (Stockholm, Sweden). To be noted: Example 3; 30 min incubation, FIG. 2. The assay is classed as biochemical. On the procedure:
as §1, §2, §3, §4, §5, §6
(§7) The four variants were purified from yeast culture medium. Their concentrations were determined from the absorbance at 214 nm using BTPI as a standard. Porcine trypsin was obtained from Novo Nordisk A/S (Bagsvaerd, Denmark, bovine chymotrypsin (TLCK treated) was obtained from Sigma Chemical Co. (St. Louis, Mo., U.S.A.). Truncated human recombinant tissue factor was obtained from Corvas (San Diego, Calif., U.S.A.). Human plasmin was from Kabi (Stockholm, Sweden). Human neutrophil cathepsin G and elastase were purified from extracts of PMNs according to the method described by Baugh and Travis (Biochemistry 15 (1976) 836-843).
(§8) Peptidyl nitroanilide substrates, S2251, S2586 were from Kabi (Stockholm, Sweden). S7388 and M4765 were from Sigma Chemical Co. (St. Louis, Mo., U.S.A.).
(§9) Serine proteinases were incubated with various concentrations of the variants for 30 min. Substrate ([…]) was then added and residual proteinase activity was measured at 405 nm.

Assay [7] has as its target T4, Human neutrophil elastase (Homo sapiens, UniProt P08246).
T4 construct: Human neutrophil elastase and cathepsin G was purified from extracts of PMNs; from tissue; host or cells: extracts of human polymorphonuclear leukocytes (PMNs), method of Baugh and Travis
T4 sequence (P08246 30-267): T2 sequence (P08246 30-267)
Kind of assay: Inhibition of serine proteinases: neutrophil elastase. To be noted: Example 3; 30 min incubation, FIG. 3. The assay is classed as biochemical. As to the method: as §1, §2
Serine proteinases were incubated with various concentrations of KFN 1593 for 30 min. Substrate was then added and residual proteinase activity was measured at 405 nm. […]
as §7, §8, §9

Assay [8] has as its target T5, glandular kallikrein (porcine pancreatic kallikrein) (Sus scrofa, UniProt P00752).
T5 construct: purchased Sigma Chemical Co (St. Louis, Mo., U.S.A.)
Description: Inhibition of serine proteinases: glandular kallikrein. The assay is classed as biochemical. To be noted: Example 3; 30 min incubation, FIG. 3. On the procedure:
as §1, §2, §3, §4, §5, §6

Assay [9] deals with T6, Human neutrophil cathepsin G (Homo sapiens, UniProt P08311).
T6 construct: Human neutrophil cathepsin G was purified from extracts of PMNs; from tissue; host or cells: extracts of human polymorphonuclear leukocytes (PMNs), method of Baugh and Travis
T6 sequence (P08311 21-255): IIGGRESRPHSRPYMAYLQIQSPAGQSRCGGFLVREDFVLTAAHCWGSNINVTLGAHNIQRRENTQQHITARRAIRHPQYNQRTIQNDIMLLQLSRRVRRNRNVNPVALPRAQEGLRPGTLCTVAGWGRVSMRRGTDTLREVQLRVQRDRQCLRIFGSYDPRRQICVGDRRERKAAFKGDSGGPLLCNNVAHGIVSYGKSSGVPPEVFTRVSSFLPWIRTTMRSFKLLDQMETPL
Description: Inhibition of serine proteinases: neutrophil cathepsin G. Type of assay: biochemical. To be noted: Example 3; 30 min incubation, FIG. 3. As to the method:
as §1, §2, §3, §4, §5, §6, §7, §8, §9

Assay [10] concerns the target Human neutrophil elastase (human) (UniProt P08246).
The target of assay [11] is bovine chymotrypsin (TLCK treated) (bovine) (UniProt P00766).
Assay [12] shares this target. Description: apparent Ki; 2.5 nM chymotrypsin, substrate S2586, 30 min preincubation, residual activity at 405 nm.
Assay [13] deals with Human neutrophil elastase (human) (UniProt P08246). Description: apparent Ki; 4 nM neutrophil elastase, substrate M4765, 30 min preincubation, residual activity at 405 nm.

Bounds are passed on as bounds.

T3 sequence (P00742 235-488 limits assumed): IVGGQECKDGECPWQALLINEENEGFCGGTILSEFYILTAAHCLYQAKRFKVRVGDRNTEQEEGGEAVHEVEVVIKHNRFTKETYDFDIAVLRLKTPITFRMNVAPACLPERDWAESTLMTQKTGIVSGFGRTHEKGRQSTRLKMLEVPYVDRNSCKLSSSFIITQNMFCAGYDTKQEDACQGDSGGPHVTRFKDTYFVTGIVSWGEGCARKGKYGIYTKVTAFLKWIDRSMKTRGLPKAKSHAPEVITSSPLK
T3 sequence (P00742 41-179 limits assumed): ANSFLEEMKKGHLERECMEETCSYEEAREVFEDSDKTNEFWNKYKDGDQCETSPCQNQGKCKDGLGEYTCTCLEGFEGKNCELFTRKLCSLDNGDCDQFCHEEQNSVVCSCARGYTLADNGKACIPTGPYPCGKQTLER
T5 sequence (P00752 8-246): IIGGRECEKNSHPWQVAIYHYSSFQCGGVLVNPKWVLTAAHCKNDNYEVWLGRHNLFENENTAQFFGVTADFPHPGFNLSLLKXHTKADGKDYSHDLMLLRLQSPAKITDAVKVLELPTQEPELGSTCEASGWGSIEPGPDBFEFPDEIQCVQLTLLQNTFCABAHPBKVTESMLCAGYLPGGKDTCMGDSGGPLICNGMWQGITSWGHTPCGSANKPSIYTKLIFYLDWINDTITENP
Human plasmin, sequence (P00747 581-810 limits assumed): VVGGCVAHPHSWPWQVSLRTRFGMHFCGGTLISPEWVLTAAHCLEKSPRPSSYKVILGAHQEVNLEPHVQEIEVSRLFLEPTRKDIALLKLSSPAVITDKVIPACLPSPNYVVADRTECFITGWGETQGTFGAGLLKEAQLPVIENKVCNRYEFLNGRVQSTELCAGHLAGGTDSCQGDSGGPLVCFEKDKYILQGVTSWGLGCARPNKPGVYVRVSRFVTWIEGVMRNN
Human plasmin, sequence (P00747 97-580 limits assumed): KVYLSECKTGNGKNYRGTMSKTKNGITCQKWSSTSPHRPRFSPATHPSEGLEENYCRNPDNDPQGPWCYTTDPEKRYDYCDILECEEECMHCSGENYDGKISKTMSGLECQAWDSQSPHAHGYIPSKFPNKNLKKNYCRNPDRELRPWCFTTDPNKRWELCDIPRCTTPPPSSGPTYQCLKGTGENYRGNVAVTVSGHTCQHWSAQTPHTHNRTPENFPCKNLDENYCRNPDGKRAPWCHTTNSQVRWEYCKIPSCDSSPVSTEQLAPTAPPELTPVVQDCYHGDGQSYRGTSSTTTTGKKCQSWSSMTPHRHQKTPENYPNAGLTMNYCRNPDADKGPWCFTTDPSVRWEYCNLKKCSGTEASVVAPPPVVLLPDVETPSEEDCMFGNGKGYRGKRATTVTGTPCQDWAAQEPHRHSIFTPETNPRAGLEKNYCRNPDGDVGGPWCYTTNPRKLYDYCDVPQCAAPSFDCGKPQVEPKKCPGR

aprotinin (3-58, Arg15, Ala17, Ser42): on plasma kallikrein [1], the “plasma kallikrein inhibitory effect (in words)” value is given as “excellent plasma kallikrein inhibitory effect”.

Consider aprotinin, for which the “blood loss in connection with cardiac surgery” value in assay [2] was “significantly reduces blood loss”.

With “TFPI-2, the second Kunitz domain of tissue factor pathway inhibitor, from yeast strain KFN-1593 (from UniProt P10646)”, the residual proteinase activity at 405 nm in assay [3] is 5 nM. The Ki came out at 5 nM in assay [4] and 150 nM in [5].

With aprotinin(1-58, Val15), the “effect on collagenase (in words)” value in the assay with collagenase is on record as “inhibitory effect”. The “effect on granulocyte elastase (in words)” value on granulocyte elastase is “relatively high selectivity”.

As for “KFN 1593: Unmodified TFPI Kunitz domain II (second Kunitz domain of tissue factor pathway inhibitor), produced from yeast strain KFN-1593 (RFESLEECKKMCTRDNANRIIKTTLQQEKPDFCFLEEDPGICRGYITRYFYNNQTKQC)”, the “inhibition of kallikreins (in words): plasma kallikrein” value with plasma kallikrein [6] is “essentially absent”. In addition, the Ki with human factor Xa worked out at 150 nM. Moreover, in the assay with Human plasmin, the “inhibition of plasmin (in words)” value is reported as “moderate inhibition”. For the same substance, the “inhibition of neutrophil elastase (in words)” value in assay [7] is given as “moderate inhibition”. Besides, the “inhibition of kallikreins (in words): glandular kallikrein” value in assay [8] is “essentially absent”. Further, the “inhibition of Cathepsin G (in words)” value in assay [9] is reported as “essentially absent”.

“[R15L]-TFPI-2 from yeast strain KFN-1928 (from UniProt P10646)”: the residual proteinase activity at 405 nm (apparent Ki) in assay [10] is 2.2 nM. Also, the apparent Ki in assay [11] was under 5 nM. Besides, the results for the Ki in [12] and in assay [13] were under 5 nM and 2.2 nM, respectively.

With aprotinin (1-58, Ala15), the “effect on granulocyte elastase (in words)” value on granulocyte elastase is “weak effect”.
